Measured values taken from the supplement of paper PMC7877785.
± gives the uncertainty stated by the source.

Assay: self-splicing fitness, log relative to wild type (ln ratio); higher = more splicing; Tetrahymena group I intron in knt gene, E. coli kanamycin selection, DiMSum; sequences stand for … in CUCUCU…GGAGGGAAAAGUUAUCAGGCAUGCACCUGGUAGCUAGUCUUUAAACCAAUAGAUUGCAUCGGUUUAAAAGGCAAGACCGUCAAAUUGCGGGAAAGGGGUCAACAGCCGUUCAGUACCAAGUCUCAGGGGAAACUUUGAGAUGGCCUUGCAAAGGGUAUGGUAAUAAGCUGACGGACAUGGUCCUAACCACGCAGCCAAGUCCUAAGUCAACAGAUCUUCUGUUGAUAUGGAUGCAGUUCACAGACUAAAUGUCGGUCGGGGAAGAUGUAUUCUUCUCAUAAGAUAUAGUCGGACCUCUCCUUAAUGGGAGCUAGCGGAUGAAGUGAUGCAACACUGGAGCCGCUGGGAACUAAUUUGUAUGCGAAAGUAUAUUGAUUAGUUUUGGAGUACUCGUGGUCG
Summary of the method: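 The eight P1ex-region nucleotides of an intron in the knt kanamycin-resistance gene on pET-22b(+) were all randomised and the library put into E. coli BL21(DE3). Six replicate transformations were grown overnight at 37°C or 30°C on LB agar with or without 25 μg/mL kanamycin, together with 100 μg/mL carbenicillin, 50 μM IPTG and 0.2% rhamnose. Colonies were pooled and amplicon-sequenced on an Illumina HiSeq 2500. Fitness from DiMSum is the error-weighted combination of wild-type-normalised replicate fold changes, kanamycin over none.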

Row | Sequence | self-splicing fitness (ln) (30 °C) | self-splicing fitness (ln) (37 °C)
1 | AAAAAGCAAUAUUACGAACU | -0.488 ± 0.07 | -0.079 ± 0.087
2 | AAAAAGCAAUAUUACGAAUA | -1.42 ± 0.1 | -0.458 ± 0.095
3 | AAAAAGCAAUAUUACGACAG | -1.17 ± 0.066 | -0.774 ± 0.088
4 | AAAAAGCAAUAUUACGAGUC | -3.46 ± 0.22 | -1.28 ± 0.19
5 | AAAAAGCAAUAUUACGAUGC | -1.66 ± 0.091 | -0.868 ± 0.11
6 | AAAAAGCAAUAUUACGCACG | -1.4 ± 0.094 | -0.508 ± 0.14
7 | AAAAAGCAAUAUUACGCCAC | – | -2.91 ± 0.47
8 | AAAAAGCAAUAUUACGCCCA | -0.382 ± 0.12 | -0.253 ± 0.16
9 | AAAAAGCAAUAUUACGCUGG | -1.73 ± 0.11 | -0.618 ± 0.13
10 | AAAAAGCAAUAUUACGGCGU | -0.321 ± 0.078 | 0.208 ± 0.098
11 | AAAAAGCAAUAUUACGGGGG | -3.27 ± 0.17 | -2.76 ± 0.18
12 | AAAAAGCAAUAUUACGGUAG | -3.38 ± 0.21 | -1.45 ± 0.15
13 | AAAAAGCAAUAUUACGGUUC | -2.7 ± 0.18 | -1.81 ± 0.21
14 | AAAAAGCAAUAUUACGUAAU | -1.4 ± 0.063 | -0.916 ± 0.085
15 | AAAAAGCAAUAUUACGUACG | -1.1 ± 0.055 | -0.101 ± 0.076
16 | AAAAAGCAAUAUUACGUAGU | -2.1 ± 0.076 | -1.69 ± 0.091
17 | AAAAAGCAAUAUUACGUAUC | -2.37 ± 0.089 | -1.5 ± 0.12
18 | AAAAAGCAAUAUUACGUCCU | 0.148 ± 0.065 | 0.294 ± 0.079
19 | AAAAAGCAAUAUUACGUGAU | -2.07 ± 0.072 | -0.588 ± 0.09
20 | AAAAAGCAAUAUUACGUGUA | -1.78 ± 0.089 | -1.33 ± 0.085
21 | AAAAAGCAAUAUUACGUGUG | -1.57 ± 0.049 | -1.27 ± 0.069
22 | AAACAGCAAUAUUACGAACA | -1.78 ± 0.09 | -0.635 ± 0.084
23 | AAACAGCAAUAUUACGAAGA | -2.29 ± 0.12 | -1.55 ± 0.11
24 | AAACAGCAAUAUUACGACAA | -0.939 ± 0.095 | -0.417 ± 0.11

Row | Sequence | self-splicing fitness (ln) (30 °C) | self-splicing fitness (ln) (37 °C)
25 | AAACAGCAAUAUUACGACCC | -0.763 ± 0.11 | 0.302 ± 0.13
26 | AAACAGCAAUAUUACGACGU | -0.232 ± 0.045 | 0.39 ± 0.052
27 | AAACAGCAAUAUUACGAGGG | -3.69 ± 0.15 | -2.33 ± 0.15
28 | AAACAGCAAUAUUACGAGUC | -3.55 ± 0.14 | -2.38 ± 0.14
29 | AAACAGCAAUAUUACGAUCA | -0.774 ± 0.07 | -0.178 ± 0.065
30 | AAACAGCAAUAUUACGAUUA | -1.16 ± 0.092 | -0.343 ± 0.094
31 | AAACAGCAAUAUUACGAUUC | -2.04 ± 0.1 | 0.0665 ± 0.091
32 | AAACAGCAAUAUUACGCCCC | -1.63 ± 0.15 | -0.801 ± 0.19
33 | AAACAGCAAUAUUACGCCCG | -1.35 ± 0.27 | -0.868 ± 0.32
34 | AAACAGCAAUAUUACGCUAC | -3.84 ± 0.2 | -3.56 ± 0.24
35 | AAACAGCAAUAUUACGCUAU | -1.87 ± 0.1 | -2.23 ± 0.16
36 | AAACAGCAAUAUUACGCUCA | -0.43 ± 0.081 | 0.168 ± 0.1
37 | AAACAGCAAUAUUACGCUGU | -3.85 ± 0.14 | -1.89 ± 0.096
38 | AAACAGCAAUAUUACGGAAC | -3.5 ± 0.16 | -4.05 ± 0.28
39 | AAACAGCAAUAUUACGGAGU | -3.77 ± 0.16 | -2.53 ± 0.11
40 | AAACAGCAAUAUUACGGCCC | -2.15 ± 0.2 | -0.625 ± 0.23
41 | AAACAGCAAUAUUACGGCGU | -0.571 ± 0.053 | -0.336 ± 0.063
42 | AAACAGCAAUAUUACGGGGC | -3.85 ± 0.16 | -3.51 ± 0.19
43 | AAACAGCAAUAUUACGGGGU | -3.07 ± 0.11 | -2.6 ± 0.14
44 | AAACAGCAAUAUUACGUAGU | -1.64 ± 0.054 | -1.62 ± 0.077
45 | AAACAGCAAUAUUACGUCGG | -2.8 ± 0.11 | -1.13 ± 0.11
46 | AAACAGCAAUAUUACGUCGU | -2.13 ± 0.071 | -0.661 ± 0.071
47 | AAACAGCAAUAUUACGUGGA | -3.1 ± 0.14 | -1.95 ± 0.1
48 | AAAGAGCAAUAUUACGAAUG | -2.69 ± 0.2 | –

Row | Sequence | self-splicing fitness (ln) (30 °C) | self-splicing fitness (ln) (37 °C)
49 | AAAGAGCAAUAUUACGACAC | -2.67 ± 0.29 | -1.89 ± 0.41
50 | AAAGAGCAAUAUUACGAGAG | -3.36 ± 0.19 | -3.42 ± 0.21
51 | AAAGAGCAAUAUUACGAGCA | -2.83 ± 0.39 | -2.26 ± 0.42
52 | AAAGAGCAAUAUUACGAGGC | -3.57 ± 0.24 | -2.74 ± 0.28
53 | AAAGAGCAAUAUUACGAUGC | -2.54 ± 0.2 | -1.96 ± 0.27
54 | AAAGAGCAAUAUUACGCAAG | -3.4 ± 0.19 | -3.51 ± 0.36
55 | AAAGAGCAAUAUUACGCAGU | -3.46 ± 0.2 | -1.71 ± 0.17
56 | AAAGAGCAAUAUUACGCGAC | -2.55 ± 0.2 | -0.998 ± 0.14
57 | AAAGAGCAAUAUUACGCUCA | – | -0.771 ± 0.37
58 | AAAGAGCAAUAUUACGGAGG | -3.48 ± 0.22 | -2.3 ± 0.23
59 | AAAGAGCAAUAUUACGGAUC | -2.89 ± 0.2 | -2.56 ± 0.15
60 | AAAGAGCAAUAUUACGGCGA | -1.65 ± 0.22 | -1.26 ± 0.3
61 | AAAGAGCAAUAUUACGGGCA | -2.45 ± 0.2 | -1.42 ± 0.24
62 | AAAGAGCAAUAUUACGGUGU | -4.54 ± 0.28 | -2.87 ± 0.21
63 | AAAGAGCAAUAUUACGUACA | -3.37 ± 0.28 | -1.71 ± 0.23
64 | AAAGAGCAAUAUUACGUAUA | -3.45 ± 0.37 | -1.89 ± 0.32
65 | AAAGAGCAAUAUUACGUCAA | -3.31 ± 0.18 | -2.61 ± 0.19
66 | AAAGAGCAAUAUUACGUCAC | -2.56 ± 0.5 | -2.76 ± 0.31
67 | AAAGAGCAAUAUUACGUCGG | -3.89 ± 0.24 | -1.71 ± 0.2
68 | AAAGAGCAAUAUUACGUGCG | -2.69 ± 0.12 | -1.82 ± 0.13
69 | AAAGAGCAAUAUUACGUGGG | -3.99 ± 0.18 | -3.8 ± 0.2
70 | AAAGAGCAAUAUUACGUUCU | -2.77 ± 0.13 | -1.72 ± 0.13
71 | AAAGAGCAAUAUUACGUUGC | -3.79 ± 0.39 | -1.93 ± 0.23
72 | AAAGAGCAAUAUUACGUUUU | -2.46 ± 0.11 | -1.91 ± 0.12

Row | Sequence | self-splicing fitness (ln) (30 °C) | self-splicing fitness (ln) (37 °C)
73 | AAAUAGCAAUAUUACGAAGA | -2.26 ± 0.26 | -1.1 ± 0.17
74 | AAAUAGCAAUAUUACGACAU | -0.145 ± 0.012 | 0.051 ± 0.032
75 | AAAUAGCAAUAUUACGACUC | -0.664 ± 0.17 | -0.335 ± 0.21
76 | AAAUAGCAAUAUUACGACUG | -0.98 ± 0.12 | -0.722 ± 0.18
77 | AAAUAGCAAUAUUACGAGCU | -1.37 ± 0.12 | -0.386 ± 0.13
78 | AAAUAGCAAUAUUACGAUAA | -1.51 ± 0.12 | -0.658 ± 0.13
79 | AAAUAGCAAUAUUACGAUAU | -1.21 ± 0.13 | -0.352 ± 0.16
80 | AAAUAGCAAUAUUACGCAGU | -3.79 ± 0.2 | -1.57 ± 0.14
81 | AAAUAGCAAUAUUACGCAUG | -1.27 ± 0.11 | -1.03 ± 0.12
82 | AAAUAGCAAUAUUACGCCAC | -3.22 ± 0.36 | -2.18 ± 0.5
83 | AAAUAGCAAUAUUACGCGUG | -1.11 ± 0.078 | -0.804 ± 0.11
84 | AAAUAGCAAUAUUACGGAAA | -2.87 ± 0.26 | -1.53 ± 0.17
85 | AAAUAGCAAUAUUACGGAAU | -3.69 ± 0.17 | -2.24 ± 0.16
86 | AAAUAGCAAUAUUACGGCGG | -1.48 ± 0.086 | -0.335 ± 0.1
87 | AAAUAGCAAUAUUACGGGGU | -3.27 ± 0.17 | -2.12 ± 0.19
88 | AAAUAGCAAUAUUACGUAAA | -1.61 ± 0.096 | -0.713 ± 0.11
89 | AAAUAGCAAUAUUACGUACC | -0.0895 ± 0.18 | -1.39 ± 0.24
90 | AAAUAGCAAUAUUACGUACG | -1.1 ± 0.11 | -1.16 ± 0.13
91 | AAAUAGCAAUAUUACGUCAA | -2.07 ± 0.17 | -1.8 ± 0.18
92 | AAAUAGCAAUAUUACGUCAG | -2.52 ± 0.12 | -1.41 ± 0.11
93 | AAAUAGCAAUAUUACGUCCG | -1.39 ± 0.16 | 0.00872 ± 0.18
94 | AAAUAGCAAUAUUACGUUGG | -4.2 ± 0.22 | -2.57 ± 0.21
95 | AACAAGCAAUAUUACGAAAC | -3.9 ± 0.23 | -2.33 ± 0.27
96 | AACAAGCAAUAUUACGAAGU | -2.46 ± 0.085 | -1.29 ± 0.099
